According to paper PMC12667839:

Target: T1, GST-FOXL2-FHD (UniProt O88470 48-144)
T1 sequence: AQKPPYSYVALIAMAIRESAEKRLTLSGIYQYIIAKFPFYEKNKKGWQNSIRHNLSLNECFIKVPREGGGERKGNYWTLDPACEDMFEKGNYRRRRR
Assay: EMSA

B1: Enh 3 wt (SBE/FBE1&2) (dsDNA)
DNA 1: GCCTTGATGTGTCTGGCTCAGAGCTGGCTAGAAGGCCAAGGCTATATGC
DNA 2: GCATATAGCCTTGGCCTTCTAGCCAGCTCTGAGCCAGACACATCAAGGC
B1: no binding.
